Measurements from PMC10786891, “Massively parallel profiling of RNA-targeting CRISPR-Cas13d”.

T1: EsCas13d, nuclease-dead (Eubacterium siraeum, UniProt B0MS50, R295A;H300A;R849A;H854A)
T1 sequence: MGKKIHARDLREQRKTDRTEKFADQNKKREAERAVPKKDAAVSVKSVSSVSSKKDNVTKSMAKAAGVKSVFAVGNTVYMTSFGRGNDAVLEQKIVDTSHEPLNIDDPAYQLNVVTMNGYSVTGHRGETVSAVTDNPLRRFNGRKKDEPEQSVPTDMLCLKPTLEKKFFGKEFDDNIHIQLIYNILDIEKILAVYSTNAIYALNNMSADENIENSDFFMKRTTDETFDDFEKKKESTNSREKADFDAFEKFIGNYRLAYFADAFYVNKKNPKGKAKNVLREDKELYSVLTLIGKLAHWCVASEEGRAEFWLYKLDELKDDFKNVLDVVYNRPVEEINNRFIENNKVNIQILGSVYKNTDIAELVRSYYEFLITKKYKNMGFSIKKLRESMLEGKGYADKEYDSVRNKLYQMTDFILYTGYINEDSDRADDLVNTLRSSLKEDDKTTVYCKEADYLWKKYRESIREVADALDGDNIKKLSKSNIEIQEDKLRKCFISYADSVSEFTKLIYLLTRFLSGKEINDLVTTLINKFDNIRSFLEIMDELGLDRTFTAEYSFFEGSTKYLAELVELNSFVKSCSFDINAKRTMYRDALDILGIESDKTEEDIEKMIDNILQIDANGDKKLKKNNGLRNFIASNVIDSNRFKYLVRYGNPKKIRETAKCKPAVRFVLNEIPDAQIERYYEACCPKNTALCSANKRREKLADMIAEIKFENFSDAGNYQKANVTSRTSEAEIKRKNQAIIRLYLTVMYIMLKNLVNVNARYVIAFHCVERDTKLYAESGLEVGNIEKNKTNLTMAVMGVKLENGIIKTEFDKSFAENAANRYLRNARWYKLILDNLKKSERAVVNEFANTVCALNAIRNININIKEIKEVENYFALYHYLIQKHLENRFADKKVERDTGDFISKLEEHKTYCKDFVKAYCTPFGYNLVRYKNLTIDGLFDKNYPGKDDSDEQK


Each binder was assayed against T1, EsCas13d, nuclease-dead (assay: crRNA (strand 1, pre-loaded); Mg2+; 40 mM Tris-HCl pH 7.5, 150 mM NaCl, 6 mM MgCl2, 1 mM DTT, 0.1% Tween-20, 0.2 mg/ml BSA; 25 C; 10 min per concentration, then washed). Conditions: tags: His6-TwinStrep-SUMO cleaved; N-terminal SNAP kept (SNAP-Surface 488); label: 3' end held by stalled T7 RNA polymerase.

Binder	Kd [nM]
target 1 insA 3' of 10,insG 3' of 2 (mixed) RNA 1: CACCCGUGCAAAAAUGCAGGGGUCUAAAACUGAGCGGAUAACCUCUCUAUGG RNA 2: GGGAAUGGAUCCACAUCUACGAAUUCGUACCAUAGAGAGGUUAAUCCGCUCGACCGAGAUCGGAAGAGCACACGU	12.4 ± 0.7
target 1 insU 3' of 18,insC 3' of 8 (mixed) RNA 1: CACCCGUGCAAAAAUGCAGGGGUCUAAAACUGAGCGGAUAACCUCUCUAUGG RNA 2: GGGAAUGGAUCCACAUCUACGAAUUCGUACCAUAUGAGAGGUUAUCCCGCUCACCGAGAUCGGAAGAGCACACGU	53 ± 4
target 1 C7G,A20U (mixed) RNA 1: CACCCGUGCAAAAAUGCAGGGGUCUAAAACUGAGCGGAUAACCUCUCUAUGG RNA 2: GGGAAUGGAUCCACAUCUACGAAUUCGUACCUUAGAGAGGUUAUGCGCUCACCGAGAUCGGAAGAGCACACGU	47 ± 6
target 1 insU 3' of 7,insC 3' of 1 (mixed) RNA 1: CACCCGUGCAAAAAUGCAGGGGUCUAAAACUGAGCGGAUAACCUCUCUAUGG RNA 2: GGGAAUGGAUCCACAUCUACGAAUUCGUACCAUAGAGAGGUUAUCUCGCUCACCCGAGAUCGGAAGAGCACACGU	13.9 ± 0.6
target 1 insU 3' of 18,insG 3' of 14 (mixed) RNA 1: CACCCGUGCAAAAAUGCAGGGGUCUAAAACUGAGCGGAUAACCUCUCUAUGG RNA 2: GGGAAUGGAUCCACAUCUACGAAUUCGUACCAUAUGAGAGGGUUAUCCGCUCACCGAGAUCGGAAGAGCACACGU	46 ± 3
target 1 complement block 5-13 (mixed) RNA 1: CACCCGUGCAAAAAUGCAGGGGUCUAAAACUGAGCGGAUAACCUCUCUAUGG RNA 2: GGGAAUGGAUCCACAUCUACGAAUUCGUACCAUAGAGACCAAUAGGCCUCACCGAGAUCGGAAGAGCACACGU	~80
target 1 U11G,C21A (mixed) RNA 1: CACCCGUGCAAAAAUGCAGGGGUCUAAAACUGAGCGGAUAACCUCUCUAUGG RNA 2: GGGAAUGGAUCCACAUCUACGAAUUCGUACAAUAGAGAGGGUAUCCGCUCACCGAGAUCGGAAGAGCACACGU	64 ± 12
target 1 insG 3' of 7,insG 3' of 7 (mixed) RNA 1: CACCCGUGCAAAAAUGCAGGGGUCUAAAACUGAGCGGAUAACCUCUCUAUGG RNA 2: GGGAAUGGAUCCACAUCUACGAAUUCGUACCAUAGAGAGGUUAUCGGCGCUCACCGAGAUCGGAAGAGCACACGU	9.8 ± 0.5
target 1 A9C,G12A (mixed) RNA 1: CACCCGUGCAAAAAUGCAGGGGUCUAAAACUGAGCGGAUAACCUCUCUAUGG RNA 2: GGGAAUGGAUCCACAUCUACGAAUUCGUACCAUAGAGAGAUUCUCCGCUCACCGAGAUCGGAAGAGCACACGU	16.6 ± 1.9
target 1 G5C,A9G (mixed) RNA 1: CACCCGUGCAAAAAUGCAGGGGUCUAAAACUGAGCGGAUAACCUCUCUAUGG RNA 2: GGGAAUGGAUCCACAUCUACGAAUUCGUACCAUAGAGAGGUUGUCCCCUCACCGAGAUCGGAAGAGCACACGU	8.9 ± 0.5
target 1 insU 3' of 7,insU 3' of 5 (mixed) RNA 1: CACCCGUGCAAAAAUGCAGGGGUCUAAAACUGAGCGGAUAACCUCUCUAUGG RNA 2: GGGAAUGGAUCCACAUCUACGAAUUCGUACCAUAGAGAGGUUAUCUCGUCUCACCGAGAUCGGAAGAGCACACGU	14.5 ± 0.5
target 1 insU 3' of 13,insC 3' of 13 (mixed) RNA 1: CACCCGUGCAAAAAUGCAGGGGUCUAAAACUGAGCGGAUAACCUCUCUAUGG RNA 2: GGGAAUGGAUCCACAUCUACGAAUUCGUACCAUAGAGAGUCGUUAUCCGCUCACCGAGAUCGGAAGAGCACACGU	8.6 ± 0.5
target 1 A9G,A16C (mixed) RNA 1: CACCCGUGCAAAAAUGCAGGGGUCUAAAACUGAGCGGAUAACCUCUCUAUGG RNA 2: GGGAAUGGAUCCACAUCUACGAAUUCGUACCAUAGCGAGGUUGUCCGCUCACCGAGAUCGGAAGAGCACACGU	36.4 ± 1.8
target 1 insC 3' of 15,insU 3' of 9 (mixed) RNA 1: CACCCGUGCAAAAAUGCAGGGGUCUAAAACUGAGCGGAUAACCUCUCUAUGG RNA 2: GGGAAUGGAUCCACAUCUACGAAUUCGUACCAUAGAGCAGGUUAUUCCGCUCACCGAGAUCGGAAGAGCACACGU	14.4 ± 0.8
target 1 insU 3' of 20,insU 3' of 9 (mixed) RNA 1: CACCCGUGCAAAAAUGCAGGGGUCUAAAACUGAGCGGAUAACCUCUCUAUGG RNA 2: GGGAAUGGAUCCACAUCUACGAAUUCGUACCAUUAGAGAGGUUAUUCCGCUCACCGAGAUCGGAAGAGCACACGU	20.5 ± 1.2
target 1 insU 3' of 12,insC 3' of 10 (mixed) RNA 1: CACCCGUGCAAAAAUGCAGGGGUCUAAAACUGAGCGGAUAACCUCUCUAUGG RNA 2: GGGAAUGGAUCCACAUCUACGAAUUCGUACCAUAGAGAGGUUUCAUCCGCUCACCGAGAUCGGAAGAGCACACGU	45 ± 6
target 1 insA 3' of 17,insA 3' of 11 (mixed) RNA 1: CACCCGUGCAAAAAUGCAGGGGUCUAAAACUGAGCGGAUAACCUCUCUAUGG RNA 2: GGGAAUGGAUCCACAUCUACGAAUUCGUACCAUAGAAGAGGUAUAUCCGCUCACCGAGAUCGGAAGAGCACACGU	24.5 ± 1.7
target 1 insG 3' of 18,insG 3' of 16 (mixed) RNA 1: CACCCGUGCAAAAAUGCAGGGGUCUAAAACUGAGCGGAUAACCUCUCUAUGG RNA 2: GGGAAUGGAUCCACAUCUACGAAUUCGUACCAUAGGAGGAGGUUAUCCGCUCACCGAGAUCGGAAGAGCACACGU	55 ± 9
target 1 U8C,A14G (mixed) RNA 1: CACCCGUGCAAAAAUGCAGGGGUCUAAAACUGAGCGGAUAACCUCUCUAUGG RNA 2: GGGAAUGGAUCCACAUCUACGAAUUCGUACCAUAGAGGGGUUACCCGCUCACCGAGAUCGGAAGAGCACACGU	25.7 ± 2
target 1 G13U,C22A (mixed) RNA 1: CACCCGUGCAAAAAUGCAGGGGUCUAAAACUGAGCGGAUAACCUCUCUAUGG RNA 2: GGGAAUGGAUCCACAUCUACGAAUUCGUAACAUAGAGAUGUUAUCCGCUCACCGAGAUCGGAAGAGCACACGU	63 ± 27
target 1 insU 3' of 14,insU 3' of 6 (mixed) RNA 1: CACCCGUGCAAAAAUGCAGGGGUCUAAAACUGAGCGGAUAACCUCUCUAUGG RNA 2: GGGAAUGGAUCCACAUCUACGAAUUCGUACCAUAGAGAUGGUUAUCCUGCUCACCGAGAUCGGAAGAGCACACGU	61 ± 8
target 1 insU 3' of 6,insU 3' of 6 (mixed) RNA 1: CACCCGUGCAAAAAUGCAGGGGUCUAAAACUGAGCGGAUAACCUCUCUAUGG RNA 2: GGGAAUGGAUCCACAUCUACGAAUUCGUACCAUAGAGAGGUUAUCCUUGCUCACCGAGAUCGGAAGAGCACACGU	11.7 ± 0.7
target 1 insC 3' of 17,insG 3' of 2 (mixed) RNA 1: CACCCGUGCAAAAAUGCAGGGGUCUAAAACUGAGCGGAUAACCUCUCUAUGG RNA 2: GGGAAUGGAUCCACAUCUACGAAUUCGUACCAUAGCAGAGGUUAUCCGCUCGACCGAGAUCGGAAGAGCACACGU	~38
target 1 C7G,A20C (mixed) RNA 1: CACCCGUGCAAAAAUGCAGGGGUCUAAAACUGAGCGGAUAACCUCUCUAUGG RNA 2: GGGAAUGGAUCCACAUCUACGAAUUCGUACCCUAGAGAGGUUAUGCGCUCACCGAGAUCGGAAGAGCACACGU	86 ± 30
target 1 C4A,C7U (mixed) RNA 1: CACCCGUGCAAAAAUGCAGGGGUCUAAAACUGAGCGGAUAACCUCUCUAUGG RNA 2: GGGAAUGGAUCCACAUCUACGAAUUCGUACCAUAGAGAGGUUAUUCGAUCACCGAGAUCGGAAGAGCACACGU	3.39 ± 0.26
target 1 U8G,C22U (mixed) RNA 1: CACCCGUGCAAAAAUGCAGGGGUCUAAAACUGAGCGGAUAACCUCUCUAUGG RNA 2: GGGAAUGGAUCCACAUCUACGAAUUCGUAUCAUAGAGAGGUUAGCCGCUCACCGAGAUCGGAAGAGCACACGU	29.7 ± 2.6
target 1 C4A,U8C (mixed) RNA 1: CACCCGUGCAAAAAUGCAGGGGUCUAAAACUGAGCGGAUAACCUCUCUAUGG RNA 2: GGGAAUGGAUCCACAUCUACGAAUUCGUACCAUAGAGAGGUUACCCGAUCACCGAGAUCGGAAGAGCACACGU	5.2 ± 0.6
target 1 insU 3' of 17,insA 3' of 10 (mixed) RNA 1: CACCCGUGCAAAAAUGCAGGGGUCUAAAACUGAGCGGAUAACCUCUCUAUGG RNA 2: GGGAAUGGAUCCACAUCUACGAAUUCGUACCAUAGUAGAGGUUAAUCCGCUCACCGAGAUCGGAAGAGCACACGU	25.2 ± 3.4
